Target: His6-DIP1-c (Disconnected Interacting Protein 1, longest isoform) (Drosophila melanogaster)
Experiment: AUC

stoichiometry N: 2
Substance: His6-DIP1-c (Disconnected Interacting Protein 1, longest isoform) (natural protein)

— article PMC3205248
